{
  "source": "paper PMC5601999",
  "key": {"FGF2-Y81pCMF-GFP (human) [1]": {"biological_target": "FGF2-Y81pCMF-GFP (human)", "experiment": "z-scan fluorescence correlation spectroscopy (brightness analysis); as a2; GUVs without membrane pores, protein surface concentration ≤0.4 nmol/m^2"}, "FGF2-Y81pCMF-GFP (human) [2]": {"biological_target": "FGF2-Y81pCMF-GFP (human)", "experiment": "z-scan fluorescence correlation spectroscopy (brightness analysis); protein on single GUVs with a plasma membrane-like lipid composition containing PI(4,5)P2, pre-incubated at least 30 min; average oligomeric state = cluster brightness / monomer brightness; GUVs containing membrane pores, protein surface concentration larger than 0.4 nmol/m^2"}, "FGF2-Y81pCMF-GFP (human) [3]": {"biological_target": "FGF2-Y81pCMF-GFP (human)", "experiment": "z-scan fluorescence correlation spectroscopy (brightness analysis); as a2; GUVs containing membrane pores, protein surface concentration smaller than 0.4 nmol/m^2"}},
  "data": [
    {"substance": "FGF2-Y81pCMF-GFP", "values": [
      {"measurement": "stoichiometry N (average oligomeric state)", "setting": "FGF2-Y81pCMF-GFP (human) [1]", "result": 5.22},
      {"measurement": "stoichiometry N (average oligomeric state)", "setting": "FGF2-Y81pCMF-GFP (human) [2]", "result": 9.23},
      {"measurement": "stoichiometry N (average oligomeric state)", "setting": "FGF2-Y81pCMF-GFP (human) [3]", "result": 5.24}
    ]},
    {"substance": "FGF2-Y81pCMF-GFP (natural protein)", "values": [
      {"measurement": "stoichiometry N", "setting": "FGF2-Y81pCMF-GFP (human) [2]", "result": "8 to 12", "unit": "subunits"}
    ]}
  ]
}
